Laboratory results from US11015206B2, “Compositions and methods comprising sequences having hydroxyphenylpyruvate dioxygenase (HPPD) activity” (PIONEER HI-BRED INTERNATIONAL, INC., priority 2014, dated 2021).
Changes are numbered by the printed parent chain. Numbers in names are those of the source. Values belong to the molecule of their own block, whether it stands above or below them.

How the values were obtained:
Format in all cases: biochemical, Z. mays
[1] = system: 4-hydroxyphenylpyruvate dioxygenase (HPPD); experiment: HPPD activity coupled assay with HGD; substrate saturation kinetic parameters (kcat, KM); details: Table 6; for kcat: single substitutions in SEQ ID NO:2
Summary of the method: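 Coupled continuous assay: His-tagged HPPD (5 to 240 nM, E. coli-expressed, Ni-NTA-purified) with 50 nM P. aeruginosa HGD in 25 mM Hepes pH 7, 2 mM ascorbate, 10 μM FeSO4; maleylacetoacetate followed at 320 nm. KM and Vmax from Lineweaver-Burke fits over 3.33–100 μM HPP.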

[2] = system: 4-hydroxyphenylpyruvate dioxygenase (HPPD); experiment: ON rate ratio: HPPD reaction rate with vs without inhibitor in the 70 to 90 second interval; details: Table 5; tembotrione
Summary of the method: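 Indicator of inhibitor on-rate: reaction velocity in the 70 to 90 second window with 4 μM inhibitor divided by that without. Reactions contained 100 μM HPP and 60 or 120 nM HPPD; slower binding gives a larger ratio.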

[3] = system: 4-hydroxyphenylpyruvate dioxygenase (HPPD); experiment: OFF rate ratio: release of inhibitor from pre-formed enzyme-inhibitor complex; details: Table 5; tembotrione
Summary of the method: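 Inhibitor release from pre-formed complex (enzyme 7.2 μM, inhibitor 8 μM, 1 h RT) tracked as accelerating HPPD activity at 320 nm over 12 min, coupled via 50 nM HGD with 100 μM HPP at pH 7. OFF rate ratio: steady-state velocity relative to uninhibited initial velocity.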

[4] = system: 4-hydroxyphenylpyruvate dioxygenase (HPPD); experiment: Insensitivity parameter (ON × OFF) and trait fitness (ON × OFF × kcat/KM or × kcat); details: for ON × OFF × kcat, Value / ON × OFF × kcat, Fold vs wt / ON × OFF, fold vs wt / ON × OFF (parameters with tembotrione): Table 5, tembotrione; for ON × OFF × kcat, Fold vs wt / ON × OFF, fold vs wt: fold vs maize wild type HPPD; for ON × OFF (parameters with tembotrione): insensitivity parameter
Summary of the method: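 Trait fitness combines catalysis and insensitivity as kcat/KM × ON rate ratio × OFF rate ratio. The insensitivity parameter is the product of ON and OFF rate ratios, used in place of KD because the ON rate ratio is inverse.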

[5] = system: 4-hydroxyphenylpyruvate dioxygenase (HPPD); experiment: Estimate of kcat from initial rate at saturating hydroxyphenylpyruvate without inhibitor (ON rate ratio assay); details: Table 5; single substitutions in Round 7 variant 9070 (SEQ ID NO:2); estimate from initial rate at saturating hydroxyphenylpyruvate without inhibitor
Summary of the method: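 kcat was estimated from the initial reaction rate with known enzyme level (60 or 120 nM HPPD). Hydroxyphenylpyruvate was at a saturating 100 μM, with no inhibitor present.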

[6] = DKN (diketonitrile form of isoxaflutole)
[7] = DKN (isoxaflutole diketonitrile)

ON ratio (parameters with tembotrione) [2]: 0.75 | OFF ratio (parameters with tembotrione) [3]: 0.20 | Insensitivity parameter, ON × OFF [4, 6]: 0.29 | Insensitivity parameter, ON × OFF ([4]; Mesotrione, Table 6): 0.46 | Insensitivity parameter, ON × OFF ([4]; Sulcotrione): 0.53 | ON × OFF, fold vs wt [4]: 28.5 | ON × OFF (parameters with tembotrione) [4]: 0.15 | Insensitivity parameter, ON × OFF ([4]; Tembotrione): 0.20 | Insensitivity parameter, ON × OFF ([4]; Topramezon): 0.29
B1: 206S: single substitution P206S in SEQ ID NO:2 (protein)
chain: MGPTPTATAAGAAVAAASAAEQAAFRLVGHRNFVRFNPRSDRFQTLAFHHVELWCADAASAAGRFSFALGVPLAARSDLSTGNSAHASLLLRSGSLSLLFTAPYAHGADAATAALPSFSAAAARRFAADHGLAVRAVALRVADAEDAFRASVAAGARPAFGPVDLGRGFRLAEVELYGDVVLRYVSYPDGAAGEPFLPGFEGVASSGAADYGLSRFDHIVGNVPELAPAAAYMAGFTGFHEFAEFTTEDVGTTESGLNSMALANNSENVLLPLNEPVHGTKRRSQIQTFLDHHGGPGVQHIALASDDVLRTLREMRARSAMGGFEFLPPPLSDYYDGVRRCAGDVLTEAQINECQELGVMVDRDDQGVLLQIFTKPVGDRPTFFLEIIQRIGCMEKDEKGQEYQKGGCGGFGKGNFGQLFKSIEDYEKSLEAKQAAAAATAQGS
modifications: Zea mays variant form created by artificial means.
Km [1]: 3.36 µM | kcat [1]: 1.13 s⁻¹ | ON × OFF × kcat/km fold vs Round 7, variant 9070 [4, 7]: 1.1 | ON × OFF × kcat/km fold vs Round 7, variant 9070 ([4]; Sulco (sulcotrione)): 0.8 | ON × OFF × kcat, Value [4]: 5.15 | ON × OFF × kcat, Fold vs wt [4]: 4.82 | ON × OFF × kcat/km fold vs Round 7, variant 9070 ([4]; Topra (topramezone)): 1.0 | ON × OFF × kcat/km fold vs Round 7, variant 9070 ([4]; meso (mesotrione)): 0.9 | ON × OFF × kcat/km fold vs Round 7, variant 9070 ([4]; tembo (tembotrione)): 1.1 | kcat [5]: 0.592 s⁻¹

ON ratio (parameters with tembotrione) [2]: 0.78 | OFF ratio (parameters with tembotrione) [3]: 0.20 | Insensitivity parameter, ON × OFF [4, 6]: 0.27 | Insensitivity parameter, ON × OFF ([4]; Mesotrione, Table 6): 0.53 | Insensitivity parameter, ON × OFF ([4]; Sulcotrione): 0.59 | ON × OFF, fold vs wt [4]: 30.4 | ON × OFF (parameters with tembotrione) [4]: 0.16 | Insensitivity parameter, ON × OFF ([4]; Tembotrione): 0.23 | Insensitivity parameter, ON × OFF ([4]; Topramezon): 0.31
B2: 432R: single substitution A432R in SEQ ID NO:2 (protein)
chain: B1 chain with S206P, A432R
modifications: Zea mays variant form created by artificial means.
Km [1]: 1.97 µM | kcat [1]: 0.945 s⁻¹ | ON × OFF × kcat/km fold vs Round 7, variant 9070 [4, 7]: 2.1 | ON × OFF × kcat/km fold vs Round 7, variant 9070 ([4]; Sulco (sulcotrione)): 1.3 | ON × OFF × kcat, Value [4]: 4.75 | ON × OFF × kcat, Fold vs wt [4]: 4.44 | ON × OFF × kcat/km fold vs Round 7, variant 9070 ([4]; Topra (topramezone)): 1.4 | ON × OFF × kcat/km fold vs Round 7, variant 9070 ([4]; meso (mesotrione)): 1.5 | ON × OFF × kcat/km fold vs Round 7, variant 9070 ([4]; tembo (tembotrione)): 1.6 | kcat [5]: 0.51 s⁻¹

ON ratio (parameters with tembotrione) [2]: 0.75 | OFF ratio (parameters with tembotrione) [3]: 0.24 | Insensitivity parameter, ON × OFF [4, 6]: 0.44 | Insensitivity parameter, ON × OFF ([4]; Mesotrione, Table 6): 0.78 | Insensitivity parameter, ON × OFF ([4]; Sulcotrione): 0.74 | ON × OFF, fold vs wt [4]: 34.9 | ON × OFF (parameters with tembotrione) [4]: 0.18 | Insensitivity parameter, ON × OFF ([4]; Tembotrione): 0.33 | Insensitivity parameter, ON × OFF ([4]; Topramezon): 0.48
B3: 366E: single substitution Q366E in Round 7, variant 9070 (SEQ ID NO:2) (protein)
chain: B1 chain with S206P, Q366E
modifications: Zea mays variant form created by artificial means.
Km [1]: 1.61 µM | kcat [1]: 0.647 s⁻¹ | ON × OFF × kcat/km fold vs Round 7, variant 9070 [4, 7]: 1.7 | ON × OFF × kcat/km fold vs Round 7, variant 9070 ([4]; Sulco (sulcotrione)): 1.4 | ON × OFF × kcat, Value [4]: 3.58 | ON × OFF × kcat, Fold vs wt [4]: 3.35 | ON × OFF × kcat/km fold vs Round 7, variant 9070 ([4]; Topra (topramezone)): 1.9 | ON × OFF × kcat/km fold vs Round 7, variant 9070 ([4]; meso (mesotrione)): 1.8 | ON × OFF × kcat/km fold vs Round 7, variant 9070 ([4]; tembo (tembotrione)): 1.8 | kcat [5]: 0.335 s⁻¹

ON ratio (parameters with tembotrione) [2]: 0.82 | OFF ratio (parameters with tembotrione) [3]: 0.28 | Insensitivity parameter, ON × OFF [4, 6]: 0.41 | Insensitivity parameter, ON × OFF ([4]; Mesotrione, Table 6): 0.67 | Insensitivity parameter, ON × OFF ([4]; Sulcotrione): 0.77 | ON × OFF, fold vs wt [4]: 45.2 | ON × OFF (parameters with tembotrione) [4]: 0.23 | Insensitivity parameter, ON × OFF ([4]; Tembotrione): 0.33 | Insensitivity parameter, ON × OFF ([4]; Topramezon): 0.41
B4: 417S: single substitution G417S in SEQ ID NO:2 (protein)
chain: B1 chain with S206P, G417S
modifications: Zea mays variant form created by artificial means.
Km [1]: 1.41 µM | kcat [1]: 0.445 s⁻¹ | ON × OFF × kcat/km fold vs Round 7, variant 9070 [4, 7]: 0.9 | ON × OFF × kcat/km fold vs Round 7, variant 9070 ([4]; Sulco (sulcotrione)): 1.1 | ON × OFF × kcat, Value [4]: 4.26 | ON × OFF × kcat, Fold vs wt [4]: 3.98 | ON × OFF × kcat/km fold vs Round 7, variant 9070 ([4]; Topra (topramezone)): 1.2 | ON × OFF × kcat/km fold vs Round 7, variant 9070 ([4]; meso (mesotrione)): 1.3 | ON × OFF × kcat/km fold vs Round 7, variant 9070 ([4]; tembo (tembotrione)): 1.6 | kcat [5]: 0.308 s⁻¹

ON ratio (parameters with tembotrione) [2]: 0.77 | OFF ratio (parameters with tembotrione) [3]: 0.13 | Insensitivity parameter, ON × OFF [4, 6]: 0.25 | Insensitivity parameter, ON × OFF ([4]; Mesotrione, Table 6): 0.40 | Insensitivity parameter, ON × OFF ([4]; Sulcotrione): 0.51 | ON × OFF, fold vs wt [4]: 20.1 | ON × OFF (parameters with tembotrione) [4]: 0.10 | Insensitivity parameter, ON × OFF ([4]; Tembotrione): 0.19 | Insensitivity parameter, ON × OFF ([4]; Topramezon): 0.24
B5: 191G: single substitution A191G in SEQ ID NO:2 (protein)
chain: B1 chain with A191G, S206P
modifications: Zea mays variant form created by artificial means.
Km [1]: 2.46 µM | kcat [1]: 1.2 s⁻¹ | ON × OFF × kcat/km fold vs Round 7, variant 9070 [4, 7]: 1.1 | ON × OFF × kcat/km fold vs Round 7, variant 9070 ([4]; Sulco (sulcotrione)): 1.1 | ON × OFF × kcat, Value [4]: 4.36 | ON × OFF × kcat, Fold vs wt [4]: 4.08 | ON × OFF × kcat/km fold vs Round 7, variant 9070 ([4]; Topra (topramezone)): 1.1 | ON × OFF × kcat/km fold vs Round 7, variant 9070 ([4]; meso (mesotrione)): 1.1 | ON × OFF × kcat/km fold vs Round 7, variant 9070 ([4]; tembo (tembotrione)): 1.0 | kcat [5]: 0.71 s⁻¹

ON ratio (parameters with tembotrione) [2]: 0.79 | OFF ratio (parameters with tembotrione) [3]: 0.28 | Insensitivity parameter, ON × OFF [4, 6]: 0.30 | Insensitivity parameter, ON × OFF ([4]; Mesotrione, Table 6): 0.44 | Insensitivity parameter, ON × OFF ([4]; Sulcotrione): 0.60 | ON × OFF, fold vs wt [4]: 42.5 | ON × OFF (parameters with tembotrione) [4]: 0.22 | Insensitivity parameter, ON × OFF ([4]; Tembotrione): 0.23 | Insensitivity parameter, ON × OFF ([4]; Topramezon): 0.29
B6: 182M: single substitution L182M in SEQ ID NO:2 (protein)
chain: B1 chain with L182M, S206P
modifications: Zea mays variant form created by artificial means.
Km [1]: 2.88 µM | kcat [1]: 0.935 s⁻¹ | ON × OFF × kcat/km fold vs Round 7, variant 9070 [4, 7]: 0.9 | ON × OFF × kcat/km fold vs Round 7, variant 9070 ([4]; Sulco (sulcotrione)): 0.9 | ON × OFF × kcat, Value [4]: 5.63 | ON × OFF × kcat, Fold vs wt [4]: 5.26 | ON × OFF × kcat/km fold vs Round 7, variant 9070 ([4]; Topra (topramezone)): 0.9 | ON × OFF × kcat/km fold vs Round 7, variant 9070 ([4]; meso (mesotrione)): 0.8 | ON × OFF × kcat/km fold vs Round 7, variant 9070 ([4]; tembo (tembotrione)): 1.0 | kcat [5]: 0.433 s⁻¹

ON ratio (parameters with tembotrione) [2]: 0.78 | OFF ratio (parameters with tembotrione) [3]: 0.13 | Insensitivity parameter, ON × OFF [4, 6]: 0.21 | Insensitivity parameter, ON × OFF ([4]; Mesotrione, Table 6): 0.46 | Insensitivity parameter, ON × OFF ([4]; Sulcotrione): 0.55 | ON × OFF, fold vs wt [4]: 19.5 | ON × OFF (parameters with tembotrione) [4]: 0.10 | Insensitivity parameter, ON × OFF ([4]; Tembotrione): 0.15 | Insensitivity parameter, ON × OFF ([4]; Topramezon): 0.22
B7: 434H: single substitution Q434H in SEQ ID NO:2 (protein)
chain: B1 chain with S206P, Q434H
modifications: Zea mays variant form created by artificial means.
Km [1]: 2.77 µM | kcat [1]: 1.41 s⁻¹ | ON × OFF × kcat/km fold vs Round 7, variant 9070 [4, 7]: 1.4 | ON × OFF × kcat/km fold vs Round 7, variant 9070 ([4]; Sulco (sulcotrione)): 1.3 | ON × OFF × kcat, Value [4]: 5.16 | ON × OFF × kcat, Fold vs wt [4]: 4.82 | ON × OFF × kcat/km fold vs Round 7, variant 9070 ([4]; Topra (topramezone)): 1.1 | ON × OFF × kcat/km fold vs Round 7, variant 9070 ([4]; meso (mesotrione)): 1.3 | ON × OFF × kcat/km fold vs Round 7, variant 9070 ([4]; tembo (tembotrione)): 1.1 | kcat [5]: 0.865 s⁻¹
